The values below come from article PMC5643395.

This data set has as its system histone octamer WT. The data set can be described thus: ensemble FRET (microplate), salt-induced disassembly. As to conditions: Reconstitution by dialysis from 2 M to 5 mM NaCl in 10 mM Tris-HCl, 0.1 mM EDTA; FRET over NaCl titration (FRET buffer and temperature not in the material) ….

Consider Widom 601 170 bp, for which the K half is 800 mM NaCl.
